The target of the assay is MATOUAmDH2 (native amine dehydrogenase from the Marine Atlas of Tara Oceans Unigenes, MATOUv1). Nature of the assay: crystal structure; complex with NADP+; space group P2(1)2(1)2(1); four molecules in the asymmetric unit, two dimers (A/D and B/C).

On to “MATOUAmDH2 (native amine dehydrogenase from the Marine Atlas of Tara Oceans Unigenes, MATOUv1) (enzyme)”, for which the stoichiometry N – broadly, a count of units in the complex or per binding partner – came to 2.

(Values after paper PMC9325545, “Structure and Mutation of the Native Amine Dehydrogenase MATOUAmDH2” (Chembiochem, 2022).)
